In IntAct's records for PubMed 23328395:

B1: Antiviral innate immune response receptor RIG-I (Homo sapiens), O95786-1 (parent)
chain: MTTEQRRSLQAFQDYIRKTLDPTYILSYMAPWFREEEVQYIQAEKNNKGPMEAATLFLKFLLELQEEGWFRGFLDALDHAGYSGLYEAIESWDFKKIEKLEEYRLLLKRLQPEFKTRIIPTDIISDLSECLINQECEEILQICSTKGMMAGAEKLVECLLRSDKENWPKTLKLALEKERNKFSELWIVEKGIKDVETEDLEDKMETSDIQIFYQEDPECQNLSENSCPPSEVSDTNLYSPFKPRNYQLELALPAMKGKNTIICAPTGCGKTFVSLLICEHHLKKFPQGQKGKVVFFANQIPVYEQQKSVFSKYFERHGYRVTGISGATAENVPVEQIVENNDIIILTPQILVNNLKKGTIPSLSIFTLMIFDECHNTSKQHPYNMIMFNYLDQKLGGSSGPLPQVIGLTASVGVGDAKNTDEALDYICKLCASLDASVIATVKHNLEELEQVVYKPQKFFRKVESRISDKFKYIIAQLMRDTESLAKRICKDLENLSQIQNREFGTQKYEQWIVTVQKACMVFQMPDKDEESRICKALFLYTSHLRKYNDALIISEHARMKDALDYLKDFFSNVRAAGFDEIEQDLTQRFEEKLQELESVSRDPSNENPKLEDLCFILQEEYHLNPETITILFVKTRALVDALKNWIEGNPKLSFLKPGILTGRGKTNQNTGMTLPAQKCILDAFKASGDHNILIATSVADEGIDIAQCNLVILYEYVGNVIKMIQTRGRGRARGSKCFLLTSNAGVIEKEQINMYKEKMMNDSILRLQTWDEAVFREKILHIQTHEKFIRDSQEKPKPVPDKENKKLLCRKCKALACYTADVRVIEECHYTVLGDAFKECFVSRPHPKPKQFSSFEKRAKIFCARQNCSHDWGIHVKYKTFEIPVIKIESFVVEDIATGVQTLYSKWKDFHFEKIPFDPAEMSK
partner: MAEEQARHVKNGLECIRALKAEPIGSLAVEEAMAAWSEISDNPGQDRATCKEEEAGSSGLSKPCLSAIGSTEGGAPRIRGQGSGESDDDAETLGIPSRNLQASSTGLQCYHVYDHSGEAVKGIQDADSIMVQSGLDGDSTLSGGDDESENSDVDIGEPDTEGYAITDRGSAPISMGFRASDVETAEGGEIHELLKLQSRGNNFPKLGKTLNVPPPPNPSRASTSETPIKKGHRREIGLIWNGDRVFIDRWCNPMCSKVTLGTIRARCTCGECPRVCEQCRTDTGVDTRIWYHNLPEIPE
B2: Non-structural protein V (Simian virus 5 (strain W3)), P11207 (parent)
chain: MDPTDLSFSPDEINKLIETGLNTVEYFTSQQVTGTSSLGKNTIPPGVTGLLTNAAEAKIQESTNHQKGSVGGGAKPKKPRPKIAIVPADDKTVPGKPIPNPLLGLDSTPSTQTVLDLSGKTLPSGSYKGVKLAKFGKENLMTRFIEEPRENPIATSSPIDFKRGRDTGGFHRREYSIGWVGDEVKVTEWCNPSCSPITAAARRFECTCHQCPVTCSECERDT
partner: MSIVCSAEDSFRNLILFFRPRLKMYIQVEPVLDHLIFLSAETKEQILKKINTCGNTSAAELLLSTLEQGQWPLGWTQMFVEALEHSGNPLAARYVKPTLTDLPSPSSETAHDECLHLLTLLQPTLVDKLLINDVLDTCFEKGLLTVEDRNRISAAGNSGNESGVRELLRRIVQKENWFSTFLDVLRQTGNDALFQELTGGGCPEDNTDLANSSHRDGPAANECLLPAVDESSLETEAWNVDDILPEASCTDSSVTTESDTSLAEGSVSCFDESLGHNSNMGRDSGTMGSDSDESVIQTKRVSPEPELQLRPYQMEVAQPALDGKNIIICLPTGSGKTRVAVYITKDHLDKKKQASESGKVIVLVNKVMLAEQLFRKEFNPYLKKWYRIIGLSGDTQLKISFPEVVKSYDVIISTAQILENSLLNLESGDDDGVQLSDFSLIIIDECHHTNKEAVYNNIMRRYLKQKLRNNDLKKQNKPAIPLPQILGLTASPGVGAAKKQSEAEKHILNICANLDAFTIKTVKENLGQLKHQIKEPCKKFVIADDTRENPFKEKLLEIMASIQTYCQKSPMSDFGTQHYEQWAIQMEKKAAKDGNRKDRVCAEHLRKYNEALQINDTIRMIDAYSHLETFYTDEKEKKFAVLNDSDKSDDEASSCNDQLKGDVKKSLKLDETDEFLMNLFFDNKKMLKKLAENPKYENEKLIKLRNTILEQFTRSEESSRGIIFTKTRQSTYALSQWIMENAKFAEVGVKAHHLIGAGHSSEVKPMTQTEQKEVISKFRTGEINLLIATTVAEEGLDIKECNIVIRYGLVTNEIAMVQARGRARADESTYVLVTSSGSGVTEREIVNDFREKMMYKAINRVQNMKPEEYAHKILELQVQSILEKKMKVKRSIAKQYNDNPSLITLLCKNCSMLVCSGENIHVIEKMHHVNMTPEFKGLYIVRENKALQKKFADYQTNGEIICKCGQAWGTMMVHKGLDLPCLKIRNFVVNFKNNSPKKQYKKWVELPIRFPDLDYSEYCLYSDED
B3: Interferon-induced helicase C domain-containing protein 1 (Mus musculus), Q8R5F7-1 (parent)
chain: B2 partner
B4: Antiviral innate immune response receptor RIG-I (Mus musculus), Q6Q899-1 (parent)
chain: MTAEQRQNLQAFRDYIKKILDPTYILSYMSSWLEDEEVQYIQAEKNNKGPMEAASLFLQYLLKLQSEGWFQAFLDALYHAGYCGLCEAIESWDFQKIEKLEEHRLLLRRLEPEFKATVDPNDILSELSECLINQECEEIRQIRDTKGRMAGAEKMAECLIRSDKENWPKVLQLALEKDNSKFSELWIVDKGFKRAESKADEDDGAEASSIQIFIQEEPECQNLSQNPGPPSEASSNNLHSPLKPRNYQLELALPAKKGKNTIICAPTGCGKTFVSLLICEHHLKKFPCGQKGKVVFFANQIPVYEQQATVFSRYFERLGYNIASISGATSDSVSVQHIIEDNDIIILTPQILVNNLNNGAIPSLSVFTLMIFDECHNTSKNHPYNQIMFRYLDHKLGESRDPLPQVVGLTASVGVGDAKTAEEAMQHICKLCAALDASVIATVRDNVAELEQVVYKPQKISRKVASRTSNTFKCIISQLMKETEKLAKDVSEELGKLFQIQNREFGTQKYEQWIVGVHKACSVFQMADKEEESRVCKALFLYTSHLRKYNDALIISEDAQMTDALNYLKAFFHDVREAAFDETERELTRRFEEKLEELEKVSRDPSNENPKLRDLYLVLQEEYHLKPETKTILFVKTRALVDALKKWIEENPALSFLKPGILTGRGRTNRATGMTLPAQKCVLEAFRASGDNNILIATSVADEGIDIAECNLVILYEYVGNVIKMIQTRGRGRARDSKCFLLTSSADVIEKEKANMIKEKIMNESILRLQTWDEMKFGKTVHRIQVNEKLLRDSQHKPQPVPDKENKKLLCGKCKNFACYTADIRVVETSHYTVLGDAFKERFVCKPHPKPKIYDNFEKKAKIFCAKQNCSHDWGIFVRYKTFEIPVIKIESFVVEDIVSGVQNRHSKWKDFHFERIQFDPAEMSV
B5: Non-structural protein V (measles virus (strai), P0C774 (parent)
chain: B1 partner
partner: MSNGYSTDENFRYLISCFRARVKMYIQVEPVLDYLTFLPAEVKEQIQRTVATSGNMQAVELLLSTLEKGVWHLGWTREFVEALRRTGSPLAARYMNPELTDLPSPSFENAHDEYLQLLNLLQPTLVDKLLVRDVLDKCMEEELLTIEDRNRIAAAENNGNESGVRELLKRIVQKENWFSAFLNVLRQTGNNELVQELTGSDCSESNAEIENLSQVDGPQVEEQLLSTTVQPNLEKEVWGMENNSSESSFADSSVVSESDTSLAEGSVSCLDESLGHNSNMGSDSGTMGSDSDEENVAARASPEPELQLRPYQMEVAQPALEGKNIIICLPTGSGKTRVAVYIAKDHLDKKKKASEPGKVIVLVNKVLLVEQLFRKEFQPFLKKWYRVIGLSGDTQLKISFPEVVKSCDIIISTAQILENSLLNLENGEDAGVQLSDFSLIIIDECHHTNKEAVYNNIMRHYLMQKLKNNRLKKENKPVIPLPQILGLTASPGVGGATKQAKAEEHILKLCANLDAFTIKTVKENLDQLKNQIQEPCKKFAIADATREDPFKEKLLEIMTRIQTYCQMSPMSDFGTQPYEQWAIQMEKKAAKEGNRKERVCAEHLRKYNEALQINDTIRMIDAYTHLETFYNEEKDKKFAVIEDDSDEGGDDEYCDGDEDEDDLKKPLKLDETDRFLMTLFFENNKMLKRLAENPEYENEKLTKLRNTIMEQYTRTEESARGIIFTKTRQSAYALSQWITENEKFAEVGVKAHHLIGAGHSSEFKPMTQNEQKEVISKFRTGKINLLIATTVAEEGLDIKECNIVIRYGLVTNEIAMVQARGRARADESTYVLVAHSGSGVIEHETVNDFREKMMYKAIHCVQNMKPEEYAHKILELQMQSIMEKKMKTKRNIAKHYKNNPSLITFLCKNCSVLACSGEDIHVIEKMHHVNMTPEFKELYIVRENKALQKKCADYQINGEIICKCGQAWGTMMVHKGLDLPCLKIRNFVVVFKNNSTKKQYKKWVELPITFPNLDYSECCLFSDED
B6: Interferon-induced helicase C domain-containing protein 1 (Homo sapiens), Q9BYX4 (parent)
chain: B5 partner
partner: B1 partner

Variants of: B1
Conditions: with v_measc P/V

Row | Variant | effect of a mutation on the interaction
1 | L714R | increasing interaction strength
2 | L714R;E716G | increasing interaction strength

Variants of: B2
Conditions: with Ifih1, Q8R5F7-1

Row | Variant | effect of a mutation on the interaction
3 | E174A | decreasing interaction strength

Variants of: B3
Conditions: with v_piv5 P/V

Row | Variant | effect of a mutation on the interaction
4 | R806L | disrupting interaction strength

Variants of: B4
Conditions: with v_piv5 P/V

Row | Variant | effect of a mutation on the interaction
5 | L715R;E717G | increasing interaction strength

Variants of: B5
Conditions: with ifih1_human IFIH1, Q9BYX4

Row | Variant | effect of a mutation on the interaction
6 | E235A | decreasing interaction strength

Variants of: B6
Conditions: with v_measc P/V

Row | Variant | effect of a mutation on the interaction
7 | R806L | decreasing interaction strength
